Legend:
HeLa Kyoto [1] = test: solubility in G1/S (NP-40 vs SDS abundance) (log2 ratio); higher = more soluble; conditions: cell cycle stage: G1/S
HeLa Kyoto [2] = test: solubility change mitosis vs G1/S (difference of NP-40 vs SDS log2 ratios) (log2 ratio difference); higher = more soluble in mitosis
HeLa Kyoto [3] = test: melting temperature (median over replicates), in situ; higher = more thermally stable
HeLa Kyoto [4] = test: thermal stability score vs G1/S (z-score of summed log2 fold changes over temperatures); higher = more thermally stable than in G1/S
[5] = cell cycle stage: early G1 (4.5 h after nocodazole release)
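Wherever melting temperature (median over replicates), in situ is given: HeLa Kyoto cells synchronized by double thymidine or nocodazole block, proteins quantified by TMT10plex mass spectrometry, three independent biological replicates.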
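Wherever solubility change mitosis vs G1/S (difference of NP-40 vs SDS log2 ratios) is given: synchronized HeLa Kyoto cells (double thymidine block for G1/S, nocodazole release for mitosis), protein amounts in NP-40 versus SDS lysates quantified by mass spectrometry, three biological replicates.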
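Wherever solubility in G1/S (NP-40 vs SDS abundance) is given: HeLa Kyoto cells arrested at G1/S by double thymidine block, proteins quantified by TMT10plex mass spectrometry in mild NP-40 versus SDS extracts, three biological replicates.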
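Wherever thermal stability score vs G1/S (z-score of summed log2 fold changes over temperatures) is given: synchronized HeLa Kyoto cells, proteins quantified by TMT10plex mass spectrometry, three biological replicates, mitosis taken 0.5 h after nocodazole release, G1/S directly after double thymidine block.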

Chain of MTO1 (chain, as listed by the source): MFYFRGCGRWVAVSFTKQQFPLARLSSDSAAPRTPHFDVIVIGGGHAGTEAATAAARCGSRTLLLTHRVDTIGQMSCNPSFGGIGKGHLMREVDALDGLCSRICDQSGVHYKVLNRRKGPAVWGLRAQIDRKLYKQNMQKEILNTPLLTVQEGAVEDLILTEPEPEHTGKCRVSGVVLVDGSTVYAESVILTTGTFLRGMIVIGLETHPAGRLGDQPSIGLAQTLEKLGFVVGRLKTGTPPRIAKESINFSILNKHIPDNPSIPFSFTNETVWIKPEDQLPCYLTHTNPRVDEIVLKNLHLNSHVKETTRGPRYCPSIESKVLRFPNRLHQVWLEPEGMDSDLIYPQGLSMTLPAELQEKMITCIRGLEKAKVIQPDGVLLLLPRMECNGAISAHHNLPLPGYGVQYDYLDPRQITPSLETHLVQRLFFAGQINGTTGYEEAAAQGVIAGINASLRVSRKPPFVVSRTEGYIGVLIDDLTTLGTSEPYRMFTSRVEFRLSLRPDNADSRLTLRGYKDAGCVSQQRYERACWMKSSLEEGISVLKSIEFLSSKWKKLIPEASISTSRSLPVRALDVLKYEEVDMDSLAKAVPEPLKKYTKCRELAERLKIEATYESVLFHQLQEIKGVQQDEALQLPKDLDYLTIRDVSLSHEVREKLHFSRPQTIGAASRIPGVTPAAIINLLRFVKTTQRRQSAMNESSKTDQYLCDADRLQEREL

Substance	solubility in G1/S (log2) (HeLa Kyoto [1])	solubility change mitosis (log2) (HeLa Kyoto [2])	melting temperature (HeLa Kyoto [3]; cell cycle stage: G1/S) [°C]	melting temperature (HeLa Kyoto [3]; cell cycle stage: mitosis) [°C]	thermal stability score (HeLa Kyoto [4]; [5])	thermal stability score (HeLa Kyoto [4]; cell cycle stage: mitosis)
MAASGKLSTCRLPPLPTIREIIKLLRLQAAKQLSQNFLLDLRLTDKIVRKAGNLTNAYVYEVGPGPGGITRSILNADVAELLVVEKDTRFIPGLQMLSDAAPGKLRIVHGDVLTFKVEKAFSESLKRPWEDDPPNVHIIGNLPFSVSTPLIIKWLENISCRDGPFVYGRTQMTLTFQKEVAERLAANTGSKQRSRLSVMAQYLCNVRHIFTIPGQAFVPKPEVDVGVVHFTPLIQPKIEQPFKLVEKVVQNVFQFRRKYCHRGLRMLFPEAQRLESTGRLLELADIDPTLRPRQLSISHFKSLCDVYRKMCDEDPQLFAYNFREELKRRKSKNEEKEEDDAENYRL [TFB1M]	-0.318	0.122	51.7	51.4	0.388	0.452
MVHIKKGELTQEEKELLEVIGKGTVQEAGTLLSSKNVRVNCLDENGMTPLMHAAYKGKLDMCKLLLRHGADVNCHQHEHGYTALMFAALSGNKDITWVMLEAGAETDVVNSVGRTAAQMAAFVGQHDCVTIINNFFPRERLDYYTKPQGLDKEPKLPPKLAGPLHKIITTTNLHPVKIVMLVNENPLLTEEAALNKCYRVMDLICEKCMKQRDMNEVLAMKMHYISCIFQKCINFLKDGENKLDTLIKSLLKGRASDGFPVYQEKIIRESIRKFPYCEATLLQQLVRSIAPVEIGSDPTAFSVLTQAITGQVGFVDVEFCTTCGEKGASKRCSVCKMVIYCDQTCQKTHWFTHKKICKNLKDIYEKQQLEAAKEKRQEENHGKLDVNSNCVNEEQPEAEVGISQKDSNPEDSGEGKKESLESEAELEGLQDAPAGPQVSEE [ANKMY2]	0.124	-0.16	50.1	–	-0.173	-0.528
SAR1B	-0.00727	-0.182	52.3	53.4	0.15	0.55
MATAMDWLPWSLLLFSLMCETSAFYVPGVAPINFHQNDPVEIKAVKLTSSRTQLPYEYYSLPFCQPSKITYKAENLGEVLRGDRIVNTPFQVLMNSEKKCEVLCSQSNKPVTLTVEQSRLVAERITEDYYVHLIADNLPVATRLELYSNRDSDDKKKEKDVQFEHGYRLGFTDVNKIYLHNHLSFILYYHREDMEEDQEHTYRVVRFEVIPQSIRLEDLKADEKSSCTLPEGTNSSPQEIDPTKENQLYFTYSVHWEESDIKWASRWDTYLTMSDVQIHWFSIINSVVVVFFLSGILSMIIIRTLRKDIANYNKEDDIEDTMEESGWKLVHGDVFRPPQYPMILSSLLGSGIQLFCMILIVIFVAMLGMLSPSSRGALMTTACFLFMFMGVFGGFSAGRLYRTLKGHRWKKGAFCTATLYPGVVFGICFVLNCFIWGKHSSGAVPFPTMVALLCMWFGISLPLVYLGYYFGFRKQPYDNPVRTNQIPRQIPEQRWYMNRFVGILMAGILPFGAMFIELFFIFSAIWENQFYYLFGFLFLVFIILVVSCSQISIVMVYFQLCAEDYRWWWRNFLVSGGSAFYVLVYAIFYFVNKLDIVEFIPSLLYFGYTALMVLSFWLLTGTIGFYAAYMFVRKIYAAVKID [TM9SF4]	-0.198	-0.228	52.5	53.3	1.93	4.73
MPAVSKGDGMRGLAVFISDIRNCKSKEAEIKRINKELANIRSKFKGDKALDGYSKKKYVCKLLFIFLLGHDIDFGHMEAVNLLSSNRYTEKQIGYLFISVLVNSNSELIRLINNAIKNDLASRNPTFMGLALHCIASVGSREMAEAFAGEIPKVLVAGDTMDSVKQSAALCLLRLYRTSPDLVPMGDWTSRVVHLLNDQHLGVVTAATSLITTLAQKNPEEFKTSVSLAVSRLSRIVTSASTDLQDYTYYFVPAPWLSVKLLRLLQCYPPPDPAVRGRLTECLETILNKAQEPPKSKKVQHSNAKNAVLFEAISLIIHHDSEPNLLVRACNQLGQFLQHRETNLRYLALESMCTLASSEFSHEAVKTHIETVINALKTERDVSVRQRAVDLLYAMCDRSNAPQIVAEMLSYLETADYSIREEIVLKVAILAEKYAVDYTWYVDTILNLIRIAGDYVSEEVWYRVIQIVINRDDVQGYAAKTVFEALQAPACHENLVKVGGYILGEFGNLIAGDPRSSPLIQFHLLHSKFHLCSVPTRALLLSTYIKFVNLFPEVKPTIQDVLRSDSQLRNADVELQQRAVEYLRLSTVASTDILATVLEEMPPFPERESSILAKLKKKKGPSTVTDLEDTKRDRSVDVNGGPEPAPASTSAVSTPSPSADLLGLGAAPPAPAGPPPSSGGSGLLVDVFSDSASVVAPLAPGSEDNFARFVCKNNGVLFENQLLQIGLKSEFRQNLGRMFIFYGNKTSTQFLNFTPTLICSDDLQPNLNLQTKPVDPTVEGGAQVQQVVNIECVSDFTEAPVLNIQFRYGGTFQNVSVQLPITLNKFFQPTEMASQDFFQRWKQLSNPQQEVQNIFKAKHPMDTEVTKAKIIGFGSALLEEVDPNPANFVGAGIIHTKTTQIGCLLRLEPNLQAQMYRLTLRTSKEAVSQRLCELLSAQF [AP2A2]	-0.202	-0.139	52.2	51.7	-0.19	-0.622
MSASAPAAEGEGTPTQPASEKEPEMPGPREESEEEEDEDDEEEEEEEKEKSLIVEGKREKKKVERLTMQVSSLQREPFTIAQGKGQKLCEIERIHFFLSKKKTDELRNLHKLLYNRPGTVSSLKKNVGQFSGFPFEKGSVQYKKKEEMLKKFRNAMLKSICEVLDLERSGVNSELVKRILNFLMHPKPSGKPLPKSKKTCSKGSKKERNSSGMARKAKRTKCPEILSDESSSDEDEKKNKEESSDDEDKESEEEPPKKTAKREKPKQKATSKSKKSVKSANVKKADSSTTKKNQNSSKKESESEDSSDDEPLIKKLKKPPTDEELKETIKKLLASANLEEVTMKQICKKVYENYPTYDLTERKDFIKTTVKELIS	-0.0398	0.338	48.8	50.7	7.97	13.2
MTO1	-0.108	-0.0427	50	50.4	-0.222	1.63
IQGAP3	-0.395	0.191	47.8	48.1	0.51	1.12
MKKQFNRMKQLANQTVGRAEKTEVLSEDLLQIERRLDTVRSICHHSHKRLVACFQGQHGTDAERRHKKLPLTALAQNMQEASTQLEDSLLGKMLETCGDAENQLALELSQHEVFVEKEIVDPLYGIAEVEIPNIQKQRKQLARLVLDWDSVRARWNQAHKSSGTNFQGLPSKIDTLKEEMDEAGNKVEQCKDQLAADMYNFMAKEGEYGKFFVTLLEAQADYHRKALAVLEKTLPEMRAHQDKWAEKPAFGTPLEEHLKRSGREIALPIEACVMLLLETGMKEEGLFRIGAGASKLKKLKAALDCSTSHLDEFYSDPHAVAGALKSYLRELPEPLMTFNLYEEWTQVASVQDQDKKLQDLWRTCQKLPPQNFVNFRYLIKFLAKLAQTSDVNKMTPSNIAIVLGPNLLWARNEGTLAEMAAATSVHVVAVIEPIIQHADWFFPEEVEFNVSEAFVPLTTPSSNHSFHTGNDSDSGTLERKRPASMAVMEGDLVKKESFGVKLMDFQAHRRGGTLNRKHISPAFQPPLPPTDGSTVVPAGPEPPPQSSRAESSSGGGTVPSSAGILEQGPSPGDGSPPKPKDPVSAAVPAPGRNNSQIASGQNQPQAAAGSHQLSMGQPHNAAGPSPHTLRRAVKKPAPAPPKPGNPPPGHPGGQSSSGTSQHPPSLSPKPPTRSPSPPTQHTGQPPGQPSAPSQLSAPRRYSSSLSPIQAPNHPPPQPPTQATPLMHTKPNSQGPPNPMALPSEHGLEQPSHTPPQTPTPPSTPPLGKQNPSLPAPQTLAGGNPETAQPHAGTLPRPRPVPKPRNRPSVPPPPQPPGVHSAGDSSLTNTAPTASKIVTDSNSRVSEPHRSIFPEMHSDSASKDVPGRILLDIDNDTESTAL [ARHGAP17]	0.413	-0.0286	48.2	49.1	0.76	2.7
MAPKKRPETQKTSEIVLRPRNKRSRSPLELEPEAKKLCAKGSGPSRRCDSDCLWVGLAGPQILPPCRSIVRTLHQHKLGRASWPSVQQGLQQSFLHTLDSYRILQKAAPFDRRATSLAWHPTHPSTVAVGSKGGDIMLWNFGIKDKPTFIKGIGAGGSITGLKFNPLNTNQFYASSMEGTTRLQDFKGNILRVFASSDTINIWFCSLDVSASSRMVVTGDNVGNVILLNMDGKELWNLRMHKKKVTHVALNPCCDWFLATASVDQTVKIWDLRQVRGKASFLYSLPHRHPVNAACFSPDGARLLTTDQKSEIRVYSASQWDCPLGLIPHPHRHFQHLTPIKAAWHPRYNLIVVGRYPDPNFKSCTPYELRTIDVFDGNSGKMMCQLYDPESSGISSLNEFNPMGDTLASAMGYHILIWSQEEARTRK [DDB2]	-0.0537	-0.078	55.7	56.7	-1.8	-2.6
MVLESTMVCVDNSEYMRNGDFLPTRLQAQQDAVNIVCHSKTRSNPENNVGLITLANDCEVLTTLTPDTGRILSKLHTVQPKGKITFCTGIRVAHLALKHRQGKNHKMRIIAFVGSPVEDNEKDLVKLAKRLKKEKVNVDIINFGEEEVNTEKLTAFVNTLNGKDGTGSHLVTVPPGPSLADALISSPILAGEGGAMLGLGASDFEFGVDPSADPELALALRVSMEEQRQRQEEEARRAAAASAAEAGIATTGTEDSDDALLKMTISQQEFGRTGLPDLSSMTEEEQIAYAMQMSLQGAEFGQAESADIDASSAMDTSEPAKEEDDYDVMQDPEFLQSVLENLPGVDPNNEAIRNAMGSLASQATKDGKKDKKEEDKK [PSMD4]	0.287	-0.0985	53.3	53.9	-0.808	-1.22
MASAGDTQAGPRDAADQNFDYMFKLLLIGNSSVGKTSFLFRYADDSFTPAFVSTVGIDFKVKTVYRHDKRIKLQIWDTAGQERYRTITTAYYRGAMGFLLMYDIANQESFAAVQDWATQIKTYSWDNAQVILVGNKCDLEDERVVPAEDGRRLADDLGFEFFEASAKENINVKQVFERLVDVICEKMNESLEPSSSSGSNGKGPAVGDAPAPQPSSCSC [RAB3D]	0.0512	-0.109	57.2	57.6	-1.66	-1.58
MPSTDLLMLKAFEPYLEILEVYSTKAKNYVNGHCTKYEPWQLIAWSVVWTLLIVWGYEFVFQPESLWSRFKKKCFKLTRKMPIIGRKIQDKLNKTKDDISKNMSFLKVDKEYVKALPSQGLSSSAVLEKLKEYSSMDAFWQEGRASGTVYSGEEKLTELLVKAYGDFAWSNPLHPDIFPGLRKIEAEIVRIACSLFNGGPDSCGCVTSGGTESILMACKAYRDLAFEKGIKTPEIVAPQSAHAAFNKAASYFGMKIVRVPLTKMMEVDVRAMRRAISRNTAMLVCSTPQFPHGVIDPVPEVAKLAVKYKIPLHVDACLGGFLIVFMEKAGYPLEHPFDFRVKGVTSISADTHKYGYAPKGSSLVLYSDKKYRNYQFFVDTDWQGGIYASPTIAGSRPGGISAACWAALMHFGENGYVEATKQIIKTARFLKSELENIKGIFVFGNPQLSVIALGSRDFDIYRLSNLMTAKGWNLNQLQFPPSIHFCITLLHARKRVAIQFLKDIRESVTQIMKNPKAKTTGMGAIYGMAQTTVDRNMVAELSSVFLDSLYSTDTVTQGSQMNGSPKPH [SGPL1]	-0.0885	-0.101	53.3	54.3	-0.294	0.467

From the supplement of paper PMC5998384
